Measured values reported in patent US5719041.

Key:
Human plasmin (human) = Human plasmin (human) (UniProt P00747)
[1] = biological target: Tissue factor·Factor VIIa complex (human Factor VIIa with recombinant human TF1-243) (human) (UniProt P08709)
[2] = biological target: Human Factor XIIa (human) (UniProt P00748)
Bovine trypsin (bovine) = Bovine trypsin (bovine) (UniProt P00760)
[3] = biological target: Single chain tissue plasminogen activator (human) (UniProt P00750)
Human thrombin (human) = Human thrombin (human) (UniProt P00734)
[4] = biological target: Human activated protein C (human) (UniProt P04070)
Human Factor XIa (human) = Human Factor XIa (human) (UniProt P03951)
Human Factor Xa (human) [5] = biological target: Human Factor Xa (human) (UniProt P00742)
[6] = biological target: Human plasma kallikrein (human) (UniProt P03952)
[7] = biological target: Bovine chymotrypsin (bovine) (UniProt P00766)
[8] = biological target: Human leukocyte elastase (human) (UniProt P08246)
[9] = biological target: Human Factor XIIa (human) (UniProt P00748); remark: listed apart in the source
Human Factor Xa (human) [10] = biological target: Human Factor Xa (human) (UniProt P00742); remark: listed apart in the source
[11] = biological target: Human plasma kallikrein (human) (UniProt P03952); remark: listed apart in the source
[12] = biological target: T1, MeOSuc-Ala-Ala-Pro-Val-MCA
T1 sequence (peptide, N-terminal MeOSuc; C-terminal MCA): AAPV

Human leukocyte elastase, sequence (P08246 30-247 limits assumed): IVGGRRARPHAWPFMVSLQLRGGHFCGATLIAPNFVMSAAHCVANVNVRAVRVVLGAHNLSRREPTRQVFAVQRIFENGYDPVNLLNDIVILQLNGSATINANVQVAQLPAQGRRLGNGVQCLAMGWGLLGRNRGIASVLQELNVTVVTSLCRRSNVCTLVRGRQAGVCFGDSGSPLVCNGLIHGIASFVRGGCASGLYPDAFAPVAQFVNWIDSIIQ

| Substance | Percent Activity of protease with 100 nM inhibitor (Human plasmin (human)) | Percent Activity of protease with 100 nM inhibitor [1] | Percent Activity of protease with 100 nM inhibitor [2] | Percent Activity of protease with 100 nM inhibitor (Bovine trypsin (bovine)) | Percent Activity of protease with 100 nM inhibitor [3] | Percent Activity of protease with 100 nM inhibitor (Human thrombin (human)) | Percent Activity of protease with 100 nM inhibitor [4] | Percent Activity of protease with 100 nM inhibitor (Human Factor XIa (human)) | Percent Activity of protease with 100 nM inhibitor (Human Factor Xa (human) [5]) | Percent Activity of protease with 100 nM inhibitor [6] | Percent Activity of protease with 100 nM inhibitor [7] | Percent Activity of protease with 100 nM inhibitor [8] | concentration giving 10-fold prolongation of clotting time, APTT assay in normal human plasma [9] | concentration giving 10-fold prolongation of clotting time, PT assay in normal human plasma (Human Factor Xa (human) [10]) | concentration giving 10-fold prolongation of clotting time, APTT assay in normal human plasma [11] | Km of the substrate with HLE [12] |
| --- | --- | --- | --- | --- | --- | --- | --- | --- | --- | --- | --- | --- | --- | --- | --- | --- |
| Ecotin M84R mutant (from UniProt P23827) | 10% | 87% | 1% | 0% | 100% | 4% | 50% | 5% | 1% | 1% | 0% | 88% |  |  |  |  |
| Ecotin M84K mutant (from UniProt P23827) | 9% | 92% | 0% | 0% | 100% | 16% | 65% | 12% | 2% | 2% | 1% | 85% |  |  |  |  |
| Ecotin (recombinant wild type, E. coli periplasmic protein, 142 amino acid residues) (from UniProt P23827) | 100% | 99% | 0% | 0% | 100% | 98% | 99% | 79% | 0% | 0% | 0% | 0% | 0.3 µM | 2 µM | 0.3 µM |  |
| Human leukocyte elastase (from UniProt P08246) (enzyme) |  |  |  |  |  |  |  |  |  |  |  |  |  |  |  | 150 µM |
